Measured values published in US20230414660A1 (LUDWIG INSTITUTE FOR CANCER RESEARCH, published 2023).

What follows are binders tested against T1, human PDL1 protein (human, UniProt Q9NZQ7 19-238, limits assumed) (assay: titration ELISA, soluble His-tagged PD1 decoy on plate-coated human PD-L1, anti-His detection).
T1 construct: also called plate-captured PD-L1
T1 sequence (Q9NZQ7 19-238 limits assumed): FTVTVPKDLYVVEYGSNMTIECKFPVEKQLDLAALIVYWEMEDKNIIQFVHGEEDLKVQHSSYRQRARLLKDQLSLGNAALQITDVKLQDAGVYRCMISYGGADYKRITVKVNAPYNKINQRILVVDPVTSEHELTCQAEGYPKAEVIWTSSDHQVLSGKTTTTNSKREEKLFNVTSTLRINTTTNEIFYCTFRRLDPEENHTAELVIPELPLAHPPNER

| Binder | Affinity to PD-L1 (relative to WT PD1) |
| --- | --- |
| WT PD1 (receptor, Soluble monomeric protein made in bacteria with a C-terminal 6xHis tag and detected with anti-His antibody; also called WT PD1 decoy; WT PD-1 decoy) MASDSPDRPWNPPTFSPALLVVTEGDNATFTCSFSNTSESFVLNWYRMSPSNQTDKLAAFPEDRSQPGQDARFRVTQLPNGRDFHMSVVRARRNDSGTYLCGAISLAPKAQIKESLRAELRVTERRALEHHHHHH | 1 fold relative to WT PD1 |
| PD1_4XMUT_M70 (with 6xHis) (receptor) MASDSPDRPWNPPTFSPALLVVTEGDNATFTCSFSNTSESFVLNWYRMSPSNQDDRLAAFPEDRSQPGQDARFRVTQLPNGRDFHMSVVRARRNDSGTYFCGAISLAPKAKIKESLRAELRVTERRALEHHHHHH | 10 fold relative to WT PD1 |
| X1 4XMut (receptor, PD1 decoy variant, bacterial, C-terminal 6xHis) MASDSPDRPWNPPTFSPALLVVTEGDNATFTCSFSNTSESFVLNWYRESPSNQDDRLAAFPEDRSQPGQDARFRVTQLPNGRDFHMSVVRARRNDSGTYLCGAISLAPKAKIKESLRAELRVTERRALEHHHHHH | 5.6 fold relative to WT PD1 |
| Core A (receptor, PD1 decoy variant, bacterial, C-terminal 6xHis) MASDSPDRPWNPPTFSPALLVVTEGDNATFTCSFSNTSESFVLNWYRESPSNQDDRLAAFPEDRSQPGQDARFRVTQLPNGRDFHMSVVRARRNDSGTYECGAISLAPKAKIKESLRAELRVTERRALEHHHHHH | 7.1 fold relative to WT PD1 |
| 6XB (receptor, PD1 decoy variant, bacterial, C-terminal 6xHis) MASDSPDRPWNPPTFSPALLVVTEGDNATFTCSFSNTSESFVLNWYRESPSNQDDRLAAFPEDRSQPGQDARFRVTQLPNGRDFHMSVVRARRNDSGTYICGAISLAPKWKIKESLRAELRVTERRALEHHHHHH | 1.3 fold relative to WT PD1 |
| B2 4XB (receptor, PD1 decoy variant, bacterial, C-terminal 6xHis) MASDSPDRPWNPPTFSPALLVVTEGDNATFTCSFSNTSESFVLNWYRDSPSNQDDRLAAFPEDRSQPGQDARFRVTQLPNGRDFHMSVVRARRNDSGTYLCGAISLAPKAKIKESLRAELRVTERRALEHHHHHH | 7.3 fold relative to WT PD1 |
| PD1_6XD (with 6xHis) (receptor, Soluble monomeric, bacterial production) MASDSPDRPWNPPTFSPALLVVTEGDNATFTCSFSNTSESFVLNWYRESPSNQVDRLAAFPEDRSQPGQDARFRVTQLPNGRDFHMSVVRARRNDSGTYFCGAISLAPKWKIKESLRAELRVTERRALEHHHHHH | 7.2 fold relative to WT PD1 |
| M70E (receptor, PD1 decoy variant, bacterial, C-terminal 6xHis) MASDSPDRPWNPPTFSPALLVVTEGDNATFTCSFSNTSESFVLNWYRESPSNQTDKLAAFPEDRSQPGQDARFRVTQLPNGRDFHMSVVRARRNDSGTYLCGAISLAPKAQIKESLRAELRVTERRALEHHHHHH | 5.2 fold relative to WT PD1 |
| PD1_6XDM (with 6xHis) (receptor, Soluble monomeric, bacterial production) MASDSPDRPWNPPTFSPALLVVTEGDNATFTCSFSNTSESFVLNWYRMSPSNQVDRLAAFPEDRSQPGQDARFRVTQLPNGRDFHMSVVRARRNDSGTYFCGAISLAPKWKIKESLRAELRVTERRALEHHHHHH | 7.5 fold relative to WT PD1 |
| Core L (receptor, PD1 decoy variant, bacterial, C-terminal 6xHis) MASDSPDRPWNPPTFSPALLVVTEGDNATFTCSFSNTSESFVLNWYRESPSNQDDRLAAFPEDRSQPGQDARFRVTQLPNGRDFHMSVVRARRNDSGTYECGAISLAPKLKIKESLRAELRVTERRALEHHHHHH | 1.7 fold relative to WT PD1 |
| K_78R (receptor, PD1 decoy variant, bacterial, C-terminal 6xHis) MASDSPDRPWNPPTFSPALLVVTEGDNATFTCSFSNTSESFVLNWYRMSPSNQTDRLAAFPEDRSQPGQDARFRVTQLPNGRDFHMSVVRARRNDSGTYLCGAISLAPKAQIKESLRAELRVTERRALEHHHHHH | 1.4 fold relative to WT PD1 |
| PD1_4XMUT (with 6xHis) (receptor, Soluble monomeric, bacterial production) MASDSPDRPWNPPTFSPALLVVTEGDNATFTCSFSNTSESFVLNWYRESPSNQDDRLAAFPEDRSQPGQDARFRVTQLPNGRDFHMSVVRARRNDSGTYFCGAISLAPKAKIKESLRAELRVTERRALEHHHHHH | 5 fold relative to WT PD1 |
| T_76D (receptor, PD1 decoy variant, bacterial, C-terminal 6xHis) MASDSPDRPWNPPTFSPALLVVTEGDNATFTCSFSNTSESFVLNWYRMSPSNQDDKLAAFPEDRSQPGQDARFRVTQLPNGRDFHMSVVRARRNDSGTYLCGAISLAPKAQIKESLRAELRVTERRALEHHHHHH | 8.3 fold relative to WT PD1 |
| Core_W (receptor, PD1 decoy variant, bacterial, C-terminal 6xHis) MASDSPDRPWNPPTFSPALLVVTEGDNATFTCSFSNTSESFVLNWYRESPSNQDDRLAAFPEDRSQPGQDARFRVTQLPNGRDFHMSVVRARRNDSGTYECGAISLAPKWKIKESLRAELRVTERRALEHHHHHH | 1020 fold relative to WT PD1 |
| A132W (receptor, PD1 decoy variant, bacterial, C-terminal 6xHis) MASDSPDRPWNPPTFSPALLVVTEGDNATFTCSFSNTSESFVLNWYRMSPSNQTDKLAAFPEDRSQPGQDARFRVTQLPNGRDFHMSVVRARRNDSGTYLCGAISLAPKWQIKESLRAELRVTERRALEHHHHHH | 3 fold relative to WT PD1 |
| L122E (receptor, PD1 decoy variant, bacterial, C-terminal 6xHis) MASDSPDRPWNPPTFSPALLVVTEGDNATFTCSFSNTSESFVLNWYRMSPSNQTDKLAAFPEDRSQPGQDARFRVTQLPNGRDFHMSVVRARRNDSGTYECGAISLAPKAQIKESLRAELRVTERRALEHHHHHH | 3 fold relative to WT PD1 |
| Q133K (receptor, PD1 decoy variant, bacterial, C-terminal 6xHis) MASDSPDRPWNPPTFSPALLVVTEGDNATFTCSFSNTSESFVLNWYRMSPSNQTDKLAAFPEDRSQPGQDARFRVTQLPNGRDFHMSVVRARRNDSGTYLCGAISLAPKAKIKESLRAELRVTERRALEHHHHHH | 3 fold relative to WT PD1 |
| 6XC (receptor, PD1 decoy variant, bacterial, C-terminal 6xHis) MASDSPDRPWNPPTFSPALLVVTEGDNATFTCSFSNTSESFVLNWYRESPSNQVDRLAAFPEDRSQPGQDARFRVTQLPNGRDFHMSVVRARRNDSGTYICGAISLAPKWKIKESLRAELRVTERRALEHHHHHH | 1.1 fold relative to WT PD1 |
| 5XD (receptor, PD1 decoy variant, bacterial, C-terminal 6xHis) MASDSPDRPWNPPTFSPALLVVTEGDNATFTCSFSNTSESFVLNWYRESPSNQVDRLAAFPEDRSQPGQDARFRVTQLPNGRDFHMSVVRARRNDSGTYFCGAISLAPKAKIKESLRAELRVTERRALEHHHHHH | 1.1 fold relative to WT PD1 |
